Where two headings read alike, the source gives them in different places. Each block holds one molecule with its values, some of them ahead of it.
Biological target: T1, recombinant human SHP-2 (human, UniProt Q06124 1-593)
T1 construct: SHP-2, protein tyrosine phosphatase with two SH2 domains, human, recombinant; The supplier is named only in the SPR methods; source: bought: R&D Systems, 1894-SH-100
T1 sequence (looked up): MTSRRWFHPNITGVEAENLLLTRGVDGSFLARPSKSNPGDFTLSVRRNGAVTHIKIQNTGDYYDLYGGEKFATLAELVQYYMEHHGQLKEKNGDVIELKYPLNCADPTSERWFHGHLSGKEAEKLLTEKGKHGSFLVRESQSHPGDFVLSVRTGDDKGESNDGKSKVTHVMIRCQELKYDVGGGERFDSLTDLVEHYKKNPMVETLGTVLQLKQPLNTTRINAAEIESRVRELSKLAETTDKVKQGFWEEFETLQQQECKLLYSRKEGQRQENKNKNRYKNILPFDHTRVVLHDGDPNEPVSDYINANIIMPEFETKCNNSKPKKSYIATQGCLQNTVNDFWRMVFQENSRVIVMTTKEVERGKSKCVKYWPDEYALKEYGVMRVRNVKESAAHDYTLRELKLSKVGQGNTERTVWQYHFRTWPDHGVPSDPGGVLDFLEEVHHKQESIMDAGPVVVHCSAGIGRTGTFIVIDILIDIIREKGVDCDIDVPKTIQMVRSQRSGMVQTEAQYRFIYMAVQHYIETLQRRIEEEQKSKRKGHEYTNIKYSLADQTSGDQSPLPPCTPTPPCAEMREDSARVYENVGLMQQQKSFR
Assay: ELISA; wells coated with SHP-2 (5 µg/mL, TBS pH 8) or BSA; GST:LRP1-ICD or PDGFRβ KD titrated in TBS, 0.5% BSA, 0.05% Tween 20, sodium orthovanadate, overnight at 4°C; detected with anti-GST or anti-PDGFRβ antibody; fit to a single class of sites

Kd: 18 nM
Molecule: phosphorylated GST:LRP1-ICD (LDL receptor-related protein 1 intracellular domain fused to glutathione S-transferase, tyrosine-phosphorylated) (domain or fragment)

Kd (both partners purified): 7.8 ± 1 nM
B1: phosphorylated PDGFRβ kinase domain (domain or fragment, UniProt P09619 558-1106, looked up)
chain: KKPRYEIRWKVIESVSSDGHEYIYVDPMQLPYDSTWELPRDQLVLGRTLGSGAFGQVVEATAHGLSHSQATMKVAVKMLKSTARSSEKQALMSELKIMSHLGPHLNVVNLLGACTKGGPIYIITEYCRYGDLVDYLHRNKHTFLQHHSDKRRPPSAELYSNALPVGLPLPSHVSLTGESDGGYMDMSKDESVDYVPMLDMKGDVKYADIESSNYMAPYDNYVPSAPERTCRATLINESPVLSYMDLVGFSYQVANGMEFLASKNCVHRDLAARNVLICEGKLVKICDFGLARDIMRDSNYISKGSTFLPLKWMAPESIFNSLYTTLSDVWSFGILLWEIFTLGGTPYPELPMNEQFYNAIKRGYRMAQPAHASDEIYEIMQKCWEEKFEIRPPFSQLVLLLERLLGEGYKKKYQQVDEEFLRSDHPAILRSQARLPGFHGLRSPLDTSSVLYTAVQPNEGDNDYIIPLPDPKPEVADEGPLEGSPSLASSTLNEVNTSSTISCDSPLEPQDEPEPEPQLELQVEPEPELEQLPDSGCPAPRAEAEDSFL
modifications: phosphotyrosine (autophosphorylated with ATP and MgCl2; sites not mapped here)
notes: PDGF receptor β (PDGFRβ), kinase domain (KD); as far as I recall the product is a tagged human cytoplasmic fragment reaching to the C-terminus, to be checked with the supplier; also called pPDGFRβ KD; phospho-PDGFRβ KD; source: bought: Millipore (14-463); phosphorylated by incubating the protein with 1 mM ATP and 1 mM MgCl2

Kd (both partners purified): 326 ± 68 nM
B2: unphosphorylated PDGFRβ kinase domain (domain or fragment, UniProt P09619 558-1106, looked up)
chain: B1 chain
notes: PDGF receptor β (PDGFRβ), kinase domain (KD); also called PDGFRβ KD; non-phosphorylated PDGFRβ KD; source: bought: Millipore (14-463)

Source: paper PMC3724782, “The LDL Receptor-Related Protein 1 (LRP1) Regulates the PDGF Signaling Pathway by Binding the Protein Phosphatase SHP-2 and Modulating SHP-2- Mediated PDGF Signaling Events” (PLoS ONE, 2013)
